The assay concerns the target SARS-CoV-2 Wuhan spike (S) receptor binding domain (SARS-CoV-2). Nature of the assay: SPR; Biacore T200; […], single cycle kinetics, […]; 25°C; PBS, 0.05% Tween 20, 3.4 mM EDTA; 1:1 binding model; triplicate; […].
Broadly, the koff is the first-order rate constant of dissociation. A high value points to fast dissociation. Regarding VHH-72-Fc L97W (Fc fusion), the koff turned out to be 0.0018 s⁻¹. In turn, VHH-72-Fc L97W,T99V (Fc fusion) showed a koff of 0.00035 s⁻¹.

Take VHH-72-Fc S56M (Fc fusion): the off-rate (koff) came to 0.0031 s⁻¹. Substance VHH-72-Fc S56M,L97W (Fc fusion) displayed an off-rate constant (koff) of 0.00044 s⁻¹. To VHH-72-Fc S56M,L97W,T99V (Fc fusion) belongs 0.00028 s⁻¹. Turning to VHH-72-Fc S56M,T99V (Fc fusion), the koff came out at 0.00041 s⁻¹. For VHH-72-Fc T99V (Fc fusion), the koff amounted to 0.00072 s⁻¹. The figure for parental VHH-72-Fc (Fc fusion) is 0.0091 s⁻¹.

Values taken from PMC8967028.
